Assay results: patent publication US20160053277A1, “Compositions Having Dicamba Decarboxylase Activity and Methods of Use” (PIONEER HI-BRED INTERNATIONAL, INC., priority 2013, published 2016)

Columns and labels:
[1] = 14C assay with IPTG-induced recombinant E. coli cells: 14CO2 captured from [14C]-carboxyl-labeled dicamba; details: for Enzymatic Detection level: dicamba decarboxylation activity of the protein of the given SEQ ID NO, High / Low / No; for Dicamba Decarboxylase Activity: induced recombinant E. coli cells, [14C]-carboxyl-labeled dicamba, 14CO2 capture
[2] = Saturation mutagenesis of SEQ ID NO:109: dicamba decarboxylation activity of point mutants (carbon dioxide released); details: decarboxylation activity (carbon dioxide released) of point mutant compared with unmutated backbone protein; backbone SEQ ID NO: 109

B1: 25 (protein, listed as Acidovorax avenae)
chain: MAQGKIGLEEHFAIPETLQDSAGFVPGDYWKELSLRLLDIHERRLREMDENGMEMMILSLNAPAVQAIPDTKKAVEIAVRANDFLAEQVARRPDRFQAFAALPMQDPDLATRELERCMQDLGFRGALVNGFSQVGTPENVVYYDAPQYGDFWAAVERLDAPFYLHPRNPIASWAQIYQGHPWLMGPTWAFAQETAVHALRLMASGLFDRHPGLRIILGHLGEGLPYNMWRVDHRNAWVDMPKGYPAKRKLCDYFHENFYLTTSGNFRTQTLIDALLEVGADRILFSTDWPFENVDHAAHWFDDAAISEADRLKIGRTNALSLFKLPQG
Enzymatic Detection level [1]: Low | Dicamba Decarboxylase Activity [1]: Low | Fold Activity [2]: 1

B2: 24 (protein)
chain: MALGKVVLEEAYERPNMKEKSNHEAGLYIAPNDRPRYMRQINDINQERLKLADAHGVGYTIISLTVPGIQGIFDKTEAERVATETNNWAAEQIKNHRDRLGAFACLSMHDPAQAANELRRCVQELGFHGALLCSFQHAGPDGETYLFYDQPKYDVFWKALTELDVPLYIHPAAPTGSILERLYAQRPALIGPPLSFANDVSLHTLGIISNGVFDRFPNLKIIIGHLGEHIPFDFWRIDHWFRDVKKPIADEEGRVMAQKSLYHYFKHNIWLTTSGHFSTPTLKYVVNEIGVDRVLFSVDYPYETTESGCNWWDHDKDAIVEAVGGVDNYYAIGRENAKKLLRLDKFHDSDAR
modifications: Aspergillus niger
Enzymatic Detection level [1]: Low | Dicamba Decarboxylase Activity [1]: Low | Fold Activity [2]: 1.6

B3: 9 (protein, listed as Octadecabacter antarcticus)
chain: MATPKITFEEHFMAPGFEKHSEAFLKLIPRDQAEILTRRLGDFDGERIETMDRGGITRSIISLTGPGTQGEAVEKAVSAAQGANDFLAEKISKKPDRLGGLATLPMHDPDAAARELNRAVNDLGLQGCLVNTHTHGAYYEGTDYDPFWAEVEKLGVPFYLHPSNAYVTPHVLGGMPVLQGATWGWGVETGSHALRILFGGVFDRFPDVKLVLGHMGEALPFLRWRYDSRFGAYPMGVSLDRAPSAYFGSNILITTSGVCSHPSLIGAIGEMGADAVMFSVDYPYEDTDLAVEFIETAPLEDATRVKICHDNAARLFGMPTLAAKEGA
Enzymatic Detection level [1]: No | Dicamba Decarboxylase Activity [1]: No | Fold Activity [2]: 1.2

B4: 17 (protein)
chain: MARGKIALEEAFEVKGMDEEIDAQAALYIAPKDVERYKRQIVSITDERLQLSDQNGIGYSILSLTVPGIQGITDKDKAEKRARDVNNYIHDQIKDHRDRLGAFAALSMHDPRQAGHELRRCVKELGFHGALLNDVQHTGEGDDDQPLFYDQPDYDEFWRVAVELDVPVYLHPAAPLRDTLIYKQSYEDRKYLVGPPQSYCNGVALHLMGIIVNGVFDRFPNLKVIVGHMGERIPFDFWRMDHWVKGVTRPLAEKNGDTVCQKEPLYYFKRNIYITTSGHFSTQNLRYLYEWLGDERMMFSVDFPYERMEHGCQWYDDDAEKIKEALGGRDGYLRVGRDNARRLFKLTKFKDCDAV
modifications: Aspergillus niger
Enzymatic Detection level [1]: Low | Dicamba Decarboxylase Activity [1]: Low | Fold Activity [2]: 1.8

B5: 10 (protein, listed as Starkeya novella)
chain: MARKIALEEHFTTPELAGKYVARPTQSDALFADIERRLADFDELRLEMMDRAEIDLMVLSVTTPGVQGVRDTGEAIRLARGANDFLAREVQKRPSRYAGFAHLAMQDAEAAATELERAVRELGFRGALINGQTNGHYLDEDQYAPFWERVQELDVPVYLHPGNMADSPAMFAHRPELGGPIWAWTAETAAHALRLVFGGTFTRFPGAKVILGHMGETLPFLLWRLDSRREFDLGEKLAPDALPSAIIKRNIAVTTSGVCDPAPLVAALQALSDDNVMFSVDYPYEDPQLASKFIETAPIGEETRAKVCHGNAERLLGL
Enzymatic Detection level [1]: Low | Dicamba Decarboxylase Activity [1]: Low | Fold Activity [2]: 1.2

B6: 12 (protein, listed as Zymoseptoria tritici)
chain: MALGKVAFEEAFALPRFKERTTWWAGLFAVDPEKHTREINDINKLRIEKMDQFGVGYTLLSYTAPGVQDVWQQEEADALAREVNDHVAAEIKGHEDRLGALATLSMHDPQTASAELRRCIKDYGFKGALVNDTQRNDESGTGMIFYDGPEWDVFWSTVQELDVPFYLHPRNPTGVFMEKLWAPRKWLVGPPLSFAQGVSLHLLGMVTNGTFDRFPNLQVIIGHLGEHLPFDLWRINHWFEDIKKPLGLDCKKTIREYFNENIWITTSGHFSTPTLEYCIKEIGAERILFSIDYPFEKFEDACDWYDGVELDGPDTVKKIGRENAKKLFKLGAFKDDSA
Enzymatic Detection level [1]: No | Dicamba Decarboxylase Activity [1]: No | Fold Activity [2]: 0.9

B7: 13 (protein, listed as Metarhizium acridum)
chain: MAHGKVALEEAFALPRLHEKTRWWASLFAVNPDKHAAEMTDITDIRINYMDKHGVGYTILSYTAPGVQDISDPKEAQALAVEINDYVAGAIKNHPDRFGAFATLSMRNPQEAATELKRCVTQYGFKGALVNDTQRAGEDDMIFYDGPEWDVFWSTVEELDVPFYLHPRNPTGSLYEKLWAKRKWLVGPPLSFAQGVSLHVLGMVTNGVFDRHPKLQVVLGHLGEHIPFDMWRINHWFEDVKKPLGLDCKKTIREYFQQNIWITTSGHFSTTTLQFCMAEVGADRILFSIDYPFECFADACDWYDGVPINLVDKAKIGRDNARRLFKLPEFKDSEKHVDA
Enzymatic Detection level [1]: No | Dicamba Decarboxylase Activity [1]: No | Fold Activity [2]: 1

B8: 11 (protein)
chain: MALGKIALEEAFALPRFEEKTRWWASLFSVDPETHVKEITDINKLRIEHADKYGVGYQILSYTAPGVQDIWDPVEAQALAVEINDYIAEQIRDKPDRFGAFATLSMHNPQEAASELRRCVQTYGFKGALVNDTQRAGPDGDDMIFYDNASWDIFWQTCTELDVPLYLHPRNPTGTIYEKLWADRKWLVGPPLSFAQGVSLHVLGMVTNGVFDRHPNLQLIMGHLGEHVPFDMWRINHWFEDRKKLLGLAETCKKTIREYFAQNIWITTSGHFSTTTLNFCMAEVGVDRILFSIDYPFETFEDACVWFDGAELNLSDKAKIGRDNAARLFKLGAFRDYDAKVKA
modifications: Aspergillus niger
Enzymatic Detection level [1]: Low | Dicamba Decarboxylase Activity [1]: Low | Fold Activity [2]: 1

B9: 23 (protein, listed as Aplysina aerophoba)
chain: MAIDIDARSQPGLETARRAMSRRDFLGGAAAFGITAAATTALPASTAAGEEEDLFLLGLEEHFATAELRRLNGIQFPQGTPRFDINDVGAGRIADMDAAGIDIQVLSALTPGAQNLPGAEGVAYARRLNSWVAHEVIPAYPGRFRAFATLPLSEPQAAADELEYAVRELGFLGCMTYGAVDGKFLDHADFVPVLARAETLDVPIYIHPNWASPQVMDTYYNGLGNEWVSRVLSGAGYGWHQEVALQCLRMIASGVFDRFPRLQIIVGHMGEGLPFFYWRFGDDLARITADTLEKPVQQYFHDNFWITTSAFFRDELLRLVLSVMGEDRVMFAVDYPFVSNKVGADWFRAVDLPRNVKEKIAHKNAERLLKIGPF
Enzymatic Detection level [1]: Low | Dicamba Decarboxylase Activity [1]: Low | Fold Activity [2]: 1.5

B10: 8 (protein, listed as Metarhizium anisopliae)
chain: MARGKINFEEAFELPTLADSSREQAALYIAPKDLDRYIYHIKHPLGERLQLANSHGIGYTIYSLTVPGIQGIPDQSKAEQHATTVNDWIANEIKDHRDRLGAFAALSMHDAAQAAAELERCVRQHGFHGALLNNYQHAGPDGETYLFYDQPAYDVFWQKCVELDVPVYLHPAAPAGNYYKQMYAQRKYLVGPPLSFANDVSLHLLGLVTNGVFDRFPKLKVVVGHLGEHIPFDFWRISHWLEDVERPLAAGRGDVMSKKDLLYYFKNNIWVTTSGHFSTPTVRYVADYLGPERIMFSVDTPYETIENGVGWFDGEEDALTRALGGEDGYKKVARENAKKLFKLTKYHDCDA
Enzymatic Detection level [1]: Low | Dicamba Decarboxylase Activity [1]: Low | Fold Activity [2]: 1.3

B11: 15 (protein, listed as Metarhizium anisopliae)
chain: MAQEIAKSHETSTRFAGFAVLPMRDPEAAAKELERAVKKLGFVGALVDHKTAHGNGFCEGNEYDVLWRKAEQLAVPIYLHPSWPTEKQFQQAYAGNYSPTAAGTIGGAMFNWHSEVGHHVLRLYAAGVFDKFPKLKIIIGHFGEMIPYMLDRIREQDHRLGKTGRTFSEVYDENIWITTSGVWSLDPMRCILANTKIDHILYSVDYPFTMNERGLEWFQELEKSGLLSEEDLALIAYKNCEKLLGVKAPTQD
Enzymatic Detection level [1]: Low | Dicamba Decarboxylase Activity [1]: Low | Fold Activity [2]: 1

B12: 14 (protein, listed as Talaromyces marneffei)
chain: MARGKVSFEEAYEIPALADKSREQAALYIAPKDLDRYLSEIKSPTGGRLDISNKNGIGYTIYSLTVPGVQGIADKAKAEKHATDVNNWIYNEIKDHRDRMGAFAALSMHDPVQAGQELERCVKKLGFHGALLNNWQHAGTDGETYIFYDHPSYDVFWQKCVELDVPVYLHPSAPSGKVFDTFFKDRRYLIGPPISFAQDVALHTMGLITNGVFDRNPKLKLILGHLGERIPQDLWRTNHWLEDVERPLADSRGDTMSRKPLLYYFKNNIYVTTSGHFSTETVKFVCDYFGADRILFSVDSPYEKIEEGAGWYDKDKDNLTKALGGPQQYLDVGRENAKKLFKLGKYHDCDA
Enzymatic Detection level [1]: Low | Dicamba Decarboxylase Activity [1]: Low | Fold Activity [2]: 1

B13: 18 (protein, listed as Legionella pneumophila)
chain: MAIVDFETHFITEACIDYLTQRQEVPKLVPELNGAYTMCFTPDVSLFHTSALMEELLSLNEQRLAIMDQAGVTIQVLSLTTINGIDSCPGDENKSTALAREVNDQLYSAIQKHPERFKGFASISPYDVKEGVKELERAISQLGFVGWLTHSNFGQDNYLDDKIYWPLLEAAESLNIPIYLHPNVPIMREFGKYGFALGGSALGFEFDTALCLMRMILGGVFDAFPKLKIMLGHLGETMPFLMERLDHLYRIPDLKPYRPSIQRIPSEVLRQNVYITTSGRFFVPALRYVLEVMGEDRVLFASDYPMESLLDATRFIQDSDLSNQTKQKIFSINAKNLNLI
Enzymatic Detection level [1]: Low | Dicamba Decarboxylase Activity [1]: Low | Fold Activity [2]: 1.2

B14: 20 (protein, listed as Legionella pneumophila)
chain: MAIVDFETHFITEACIDYLTQRQEVPKLVPDLNGAYTMCFTPDVSLFHTSALMEELLSLNEQRLAIMDQAGVTIQVLSLTTINGIDSCPGDENKSTALAREVNDQLYSAIQRHPERFKGFASISPYDVKEGVKELERAISQLGFVGWLTHSNFGQDNYLDDKTYWPLLEAAEGLNIPIYLHPNVPIMREFGKYGFALGGSALGFEFDTALCLMRMILGGVFDAFPKLKIMLGHLGETMPFLMERLDHLYRIPDLKAYRPSIQRIPSEVLRQNVYITTSGRFFVPALRYVLEVMGEDRVLFASDYPMESLLDATRFIQDSDLSNQTKQKIFSINAKNLNLI
Enzymatic Detection level [1]: Low | Dicamba Decarboxylase Activity [1]: Low | Fold Activity [2]: 1.8
